Where “and” joins values, the source holds several entries; their conditions need not be identical. Equal values may be shown once.
Target: the molecule itself
Test: crystal structure

B1: African swine fever virus p15 (mature protein p15, wild type) (natural protein)
chain: MPSNMKQFCKISVWLQQHDPDLLEIINNLCMLGNLSAAKYKHGVTFIYPKQAKIRDEIKKHAYSNDPSQAIKTLESLILPFYIPTPAEFTGEIGSYTGVKLEVEKTEANKVILKNGEAVLVPAADFKPFPDRRLAVWIMESGSMPLEGPPYKRKKEGG
  stoichiometry N: 2 and 6
